Tests used:
[1] = molecular target: T1, sEGFR (soluble extracellular region of EGFR), wild-type (UniProt P00533 25-645, limits assumed); assay: SPR (Biacore 3000), equilibrium response, sEGFR over immobilized Fab72000
T1 construct: extracellular domain; also called EGFR soluble extracellular domain

[2] = molecular target: T2, sEGFRd3 (isolated domain III of sEGFR; amino acids 310-514 of mature EGFR) (UniProt P00533 334-538); assay: SPR (Biacore 3000), equilibrium response, sEGFRd3 over immobilized Fab72000
T2 construct: range 310-514; The range 310-514 counts on mature EGFR, not on the precursor; also called soluble extracellular EGFR domain III

sEGFR K454A/T459A/S460A = molecular target: T3, sEGFR K454A/T459A/S460A (UniProt P00533 25-645, limits assumed); assay: SPR, equilibrium response, mutated sEGFR passed over immobilized Fab72000 [2A]
T3 construct: extracellular domain; Positions are in mature EGFR numbering; also called triple alanine mutant

sEGFR T459A/S460A/K463A = molecular target: T4, sEGFR T459A/S460A/K463A (UniProt P00533 25-645, limits assumed); assay: as above
T4 construct: extracellular domain; Positions are in mature EGFR numbering; also called triple alanine mutant

- Kd [1]: 103 nM
- Kd [2]: 50.1 nM
- binding result (sEGFR K454A/T459A/S460A): no binding (tested: 2000 nM)
- binding result (sEGFR T459A/S460A/K463A): no binding (tested: 2000 nM)
B1: Fab fragment of matuzumab (Fab72000) (Fab, V domains shown)
VH: QVQLVQSGAEVKKPGASVKVSCKASGYTFTSHWMHWVRQAPGQGLEWIGEFNPSNGRTNYNEKFKSKATMTVDTSTNTAYMELSSLRSEDTAVYYCASRDYDYDGRYFDYWGQGTLVTVSS
VL: DIQMTQSPSSLSASVGDRVTITCSASSSVTYMYWYQQKPGKAPKLLIYDTSNLASGVPSRFSGSGSGTDYTFTISSLQPEDIATYYCQQWSSHIFTFGQGTKVEIKR
notes: also called Fab fragment of EMD 72000

Source: patent US20090175858A1 (Merck KGaA, published 2009)
